Measured values: article PMC10724246 (Nature Communications, 2023)
No end group written: not given here.

Tests used:
αWD40 Arg13Ala mutant = target: T1, αWD40 Arg13Ala mutant (Schizosaccharomyces pombe, UniProt Q96WV5, R13A); experiment: biochemical; format: binding, S. pombe; conditions: pH 6.5
T1 construct: strep-tag (C); made in house; host or cells: Expi293 cells
T1 sequence (Q96WV5 1-327 R13A limits assumed): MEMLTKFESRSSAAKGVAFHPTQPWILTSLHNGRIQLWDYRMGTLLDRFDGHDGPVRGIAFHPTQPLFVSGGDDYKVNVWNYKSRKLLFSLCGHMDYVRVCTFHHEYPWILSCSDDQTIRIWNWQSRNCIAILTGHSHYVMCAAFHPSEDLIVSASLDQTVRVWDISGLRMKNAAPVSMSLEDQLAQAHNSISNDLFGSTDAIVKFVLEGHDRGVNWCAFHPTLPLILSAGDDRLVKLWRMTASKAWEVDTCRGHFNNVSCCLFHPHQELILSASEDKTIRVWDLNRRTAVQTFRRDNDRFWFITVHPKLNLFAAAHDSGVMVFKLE

β‘WD40 domain (β‘-COPI) = target: T2, β‘WD40 domain (β‘-COPI) (Saccharomyces cerevisiae, UniProt P41811); experiment: biochemical; format: binding, S. cerevisiae; conditions: pH 6.5
T2 construct: strep-Hisx6-SUMO (N, cleaved yes); made in house; host or cells: E. coli BL21(DE3)pLysS
T2 sequence (P41811 1-304 limits assumed): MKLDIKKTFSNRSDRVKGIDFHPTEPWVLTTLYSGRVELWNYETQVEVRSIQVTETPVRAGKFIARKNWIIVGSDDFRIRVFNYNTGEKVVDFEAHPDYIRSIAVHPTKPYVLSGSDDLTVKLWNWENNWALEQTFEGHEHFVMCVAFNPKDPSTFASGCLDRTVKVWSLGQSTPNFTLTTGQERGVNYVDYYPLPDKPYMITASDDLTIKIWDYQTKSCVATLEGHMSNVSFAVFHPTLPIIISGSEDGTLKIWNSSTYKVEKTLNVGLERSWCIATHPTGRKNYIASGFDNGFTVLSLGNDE

αWD40 Arg300Ala mutant = target: T3, αWD40 Arg300Ala mutant (Schizosaccharomyces pombe, UniProt Q96WV5, R300A); experiment: biochemical; format: binding, S. pombe; conditions: pH 6.5
T3 construct: strep-tag (C); made in house; host or cells: Expi293 cells
T3 sequence (Q96WV5 1-327 R300A limits assumed): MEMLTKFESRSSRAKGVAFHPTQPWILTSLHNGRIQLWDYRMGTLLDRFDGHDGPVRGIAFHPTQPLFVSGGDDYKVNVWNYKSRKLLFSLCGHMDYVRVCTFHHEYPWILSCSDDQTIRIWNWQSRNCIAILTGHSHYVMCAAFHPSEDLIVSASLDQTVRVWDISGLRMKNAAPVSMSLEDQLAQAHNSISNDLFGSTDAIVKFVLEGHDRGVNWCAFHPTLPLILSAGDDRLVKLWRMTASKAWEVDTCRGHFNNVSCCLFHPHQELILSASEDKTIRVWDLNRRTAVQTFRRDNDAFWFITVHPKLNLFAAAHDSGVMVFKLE

[1] = target: Thr1273Glu clientized S tail 21mer peptide (BLI) (SARS-CoV-2); experiment: BLI; pH 7
[2] = target: Thr1273Glu clientized S tail 21mer peptide (BLI) (SARS-CoV-2); experiment: BLI; […]; pH 6.5 ([…]; 25 °C; Octet RED96; […]
[3] = target: amidated clientized Thr1273Glu S heptapeptide (SARS-CoV-2); experiment: BLI; […]; pH 6.5 ([…]; 25 °C; Octet RED96; […]
[4] = target: clientized GST-S tail fusion, Thr1273Asp (SARS-CoV-2); experiment: pull-down
[5] = target: clientized GST-S tail fusion, Thr1273Glu (SARS-CoV-2); experiment: pull-down
[6] = target: clientized Thr1273Glu SARS-CoV-2 S tail heptapeptide (1267Gly-Val-Lys-Leu-His-Tyr-Glu1273) (SARS-CoV-2); experiment: BLI; […]; pH 6.5 ([…]; 25 °C; Octet RED96; […]
[7] = target: wild-type SARS-CoV-2 S tail heptapeptide (1267Gly-Val-Lys-Leu-His-Tyr-Thr1273) (SARS-CoV-2); experiment: BLI; […]; pH 6.5 ([…]; 25 °C; Octet RED96; […]
[8] = target: T4, S. cerevisiae β‘-COPI WD40 domain (β‘WD40), wild type (S. cerevisiae, UniProt P41811 1-301); experiment: BLI; […]; pH 6.5 ([…]; 25 °C; Octet RED96; […]; conditions: both partners purified
T4 sequence: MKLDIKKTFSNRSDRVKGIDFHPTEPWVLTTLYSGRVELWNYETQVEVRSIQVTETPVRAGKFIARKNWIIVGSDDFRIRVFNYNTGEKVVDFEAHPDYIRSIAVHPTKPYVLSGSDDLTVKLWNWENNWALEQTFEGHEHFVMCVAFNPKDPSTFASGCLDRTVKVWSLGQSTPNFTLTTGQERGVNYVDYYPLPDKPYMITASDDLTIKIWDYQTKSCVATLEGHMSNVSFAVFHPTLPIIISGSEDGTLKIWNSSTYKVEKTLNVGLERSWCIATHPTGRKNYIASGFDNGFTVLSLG

GVKLHYE [GVKLHYE] showed a koff (αWD40 Arg13Ala mutant) of 0.22 ± 0.008 s⁻¹, a koff (β‘WD40 domain (β‘-COPI)) of 1.27 ± 0.03 s⁻¹ and a koff (αWD40 Arg300Ala mutant) of 0.43 ± 0.003 s⁻¹.

For GVKLHYT [GVKLHYT], the koff (αWD40 Arg13Ala mutant) was 0.38 ± 0.007 s⁻¹ and the koff (αWD40 Arg300Ala mutant) was 0.81 ± 0.007 s⁻¹.

For “S. pombe α-COPI WD40 domain (αWD40), wild type (domain or fragment)”, the Kd [1] was 100 nM, the Kd [2] was 100 nM and the Kd [3] was 2300 nM.

“endogenous coatomer complex (mouse liver cytosol) (from UniProt Q8CIE6 1-1224; Q9JIF7 1-953; O55029 1-905; Q9QZE5 1-874; Q5XJY5 1-511; O89079 1-308; P61924 1-177)” gave a fold binding over the Lys-x-Lys-x-xCT dibasic mutant [4] of 2 fold, a fold binding over the wild-type GST-S tail construct [4] of 17 fold and a fold binding over the Lys-x-Lys-x-xCT dibasic mutant [5] of 2 fold. The fold binding over the wild-type GST-S tail construct [5] was 17 fold.

Molecule “αWD40 Arg13Ala mutant (domain or fragment)” has a Kd [6] of 3 µM, a koff [6] of 0.22 s⁻¹ and a kon [6] of 132000 M⁻¹ s⁻¹. For the same molecule, the Kd [7] was 8.5 µM, the koff [7] was 0.38 s⁻¹ and the kon [7] was 148000 M⁻¹ s⁻¹.

“αWD40 Arg300Ala mutant (domain or fragment)” showed a Kd [6] of 4.2 µM, a koff [6] of 0.43 s⁻¹ and a kon [6] of 137000 M⁻¹ s⁻¹. The Kd [7] was 3.6 µM, the koff [7] was 0.81 s⁻¹ and the kon [7] was 360000 M⁻¹ s⁻¹.

B1: clientized Thr1273Glu SARS-CoV-2 S tail heptapeptide (1267Gly-Val-Lys-Leu-His-Tyr-Glu1273) (peptide)
peptide: GVKLHYE
notes: also called GVKLHYE; clientized S heptapeptide
Work on B1 yielded a Kd [8] of 2300 ± 230 nM, a koff [8] of 1.27 s⁻¹ and a kon [8] of 2.42e+06 M⁻¹ s⁻¹.
